# Experimental data reported in the supplement of paper PMC11908140.
# B1: library; numbered along this chain (parent)
# chain: MRKPRAAVGSGHRKQAASQEGRQKHAKNNSQAKPSACDGLARQPEEVVLQASVSSYHLFRDVAEVTAFRGSLLSWYDQEKRDLPWRRRAEDEMDLDRRAYAVWVSEVMLQQTQVATVINYYTGWMQKWPTLQDLASASLEEVNQLWAGLGYYSRGRRLQEGARKVVEELGGHMPRTAETLQQLLPGVGRYTAGAIASIAFGQATGVVDGNVARVLCRVRAIGADPSSTLVSQQLWGLAQQLVDPARPGDFNQAAMELGATVCTPQRPLCSQCPVESLCRARQRVEQEQLLASGSLSGSPDVEECAPNTGQCHLCLPPSEPWDQTLGVVNFPRKASRKPPREESSATCVLEQPGALGAQILLVQRPNSGLLAGLWEFPSVTWEPSEQLQRKALLQELQRWAGPLPATHLRHLGEVVHTFSHIKLTYQVYGLALEGQTPVTTVPPGARWLTQEEFHTAAVSTAMKKVFRVYQGQQPGTCMGSKRSQVSSPCSRKKPRMGQQVLDNFFRSHISTDAHSLNSAAQ
# Variants of: B1
# Assay: 8OG:A repair function score (normalized; synonymous = 0, nonsense = -1) (normalized log-likelihood score); higher = more repair activity (WT-like)
# Conditions: with 8OG:A DNA repair reporter (GFP) in HEK-293 MUTYH KO cells
# Protocol: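 Saturation mutagenesis (NNN codon scan) of the MUTYH cDNA (521-aa nuclear isoform NM_001048174.1 / NP_001041639), stably expressed under doxycycline induction in HEK-293 MUTYH knockout cells. Cells were co-transfected with an 8OG:A-bearing GFP repair reporter plus mCherry and sorted 72 h later into GFP+ and GFP− bins, three replicates per tile. The Rosace log2 enrichment (GFP+ vs GFP−) was converted per tile to a normalized function score with synonymous variants centered at 0 and nonsense variants (codons 1-471) at -1; low-abundance variants were removed.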
row,Variant,8OG:A repair function score
1,Y190I,-0.823
2,R332N,-0.315
3,V62Q,-0.0156
4,A280S,-0.172
5,V379Q,-0.792
6,P402R,-0.0808
7,K80N,-0.162
8,P44Y,-0.212
9,E452Y,-0.442
10,Q252L,-0.863
11,R81I,-0.704
12,P443C,-9.64e-05
13,S343H,0.00619
14,A280D,-0.649
15,A391M,-0.279
16,Y428F,-0.153
17,Q240A,-0.971
18,A162I,-0.523
19,L370P,-0.657
20,A259N,-0.257
21,G368E,-0.692
22,F200R,-0.97
23,T176S,-0.0317
24,T130I,-0.27

row,Variant,8OG:A repair function score
1,V468R,-0.101
2,P185A,-0.225
3,Q484N,0.0201
4,R163N,-0.164
5,L131W,-1.21
6,T380E,-0.0632
7,G429A,0.031
8,A6V,0.0405
9,V165Q,-0.882
10,K493F,-0.0124
11,Q450M,-0.0723
12,L134V,0.0486
13,A101S,0.00626
14,P299L,-0.0164
15,G193V,-0.346
16,L109P,-1
17,Y151G,-1.03
18,S105H,-0.786
19,R336I,-0.113
20,T439I,0.0704
21,E302T,-0.238
22,F504I,0.00771
23,A212N,-0.24
24,T440F,0.0139

row,Variant,8OG:A repair function score
1,T191Y,-1.07
2,T436N,-0.0228
3,P273I,-0.662
4,L360C,-0.171
5,P402G,-0.274
6,L396K,-1.03
7,S344T,0.00415
8,S384L,-0.000173
9,A354I,-0.0486
10,D224P,-0.861
11,S153F,0.0735
12,G368H,-0.275
13,S231H,-0.0123
14,Y121G,-1.09
15,R446I,-0.193
16,Q126H,-0.0777
17,W128C,-0.476
18,R279C,-0.251
19,E168G,-0.24
20,I198A,-0.548
21,K481Q,-0.00252
22,D208M,-0.974
23,D82E,-0.035
24,T424A,-0.121

row,Variant,8OG:A repair function score
1,S136V,0.077
2,G309R,-0.0133
3,N119L,-0.112
4,R340N,-0.24
5,R87C,-0.0638
6,R154C,-1.08
7,D512P,-0.0253
8,E451G,-0.0413
9,V485P,-0.0106
10,G297S,-0.00596
11,L361D,-1.06
12,A223L,-0.498
13,R246Q,-0.476
14,K493C,-0.00147
15,N329F,-0.345
16,G150F,-1.66
17,A259Y,-0.675
18,Q265G,-0.0557
19,C477R,0.000623
20,C477T,0.019
21,A137D,-0.219
22,V301R,-0.275
23,R495V,0.0193
24,P185C,-0.242

row,Variant,8OG:A repair function score
1,S507K,-0.0064
2,I509G,-0.00592
3,A41Q,0.168
4,D96E,-0.143
5,V206W,-1.03
6,N251E,-1.02
7,A371M,-0.439
8,D96F,-0.446
9,V415Q,0.189
10,W321T,-0.301
11,V441S,-0.0467
12,R156L,-0.142
13,P437C,-0.244
14,Y425I,0.315
15,W447G,-1.04
16,A101E,-0.00955
17,Y100Q,-1.23
18,D300C,-0.0631
19,M125I,-0.0973
20,G293S,-0.0376
21,F376K,-0.92
22,L408M,-0.0275
23,L229Q,-0.161
24,Y56N,-0.0497

row,Variant,8OG:A repair function score
1,H172R,-0.0155
2,Q521E,0.00527
3,W235R,-0.496
4,E285W,0.0108
5,M255P,-1
6,P244R,-0.145
7,E413G,-0.112
8,S138P,-0.0208
9,R154I,-0.971
10,S276Y,0.0309
11,R60Q,-0.692
12,L448F,-0.205
13,T228Y,-0.0271
14,A345R,-0.408
15,D322T,-0.0961
16,P244W,-0.457
17,E433F,-0.199
18,M125A,-0.557
19,T417V,0.0389
20,I195L,-0.287
21,Y76T,-1.06
22,G155I,-0.489
23,V214A,-0.504
24,R332L,-0.109

row,Variant,8OG:A repair function score
1,P339V,-0.0967
2,T346E,-1.03
3,L158C,-0.573
4,D208W,-1.02
5,K333S,-0.141
6,V415I,0.053
7,F200N,-0.427
8,E167D,0.018
9,A135W,-0.338
10,A223W,-0.73
11,V218Q,-0.472
12,A115Y,-0.206
13,W75F,-0.21
14,A305Y,0.000265
15,E341D,-0.0128
16,L83N,-0.585
17,L430D,-0.393
18,P264Q,-0.145
19,D94Y,-0.33
20,G356T,-0.197
21,P34I,-0.0342
22,V458R,-0.663
23,S54P,0.00682
